Consider six molecules from publication PMC11098746 (2024).

Holding throughout (experiment): AVEXIS screen signal:noise (double-corrected)
For one experiment, the target named is T1, ADP339.
T1 chain: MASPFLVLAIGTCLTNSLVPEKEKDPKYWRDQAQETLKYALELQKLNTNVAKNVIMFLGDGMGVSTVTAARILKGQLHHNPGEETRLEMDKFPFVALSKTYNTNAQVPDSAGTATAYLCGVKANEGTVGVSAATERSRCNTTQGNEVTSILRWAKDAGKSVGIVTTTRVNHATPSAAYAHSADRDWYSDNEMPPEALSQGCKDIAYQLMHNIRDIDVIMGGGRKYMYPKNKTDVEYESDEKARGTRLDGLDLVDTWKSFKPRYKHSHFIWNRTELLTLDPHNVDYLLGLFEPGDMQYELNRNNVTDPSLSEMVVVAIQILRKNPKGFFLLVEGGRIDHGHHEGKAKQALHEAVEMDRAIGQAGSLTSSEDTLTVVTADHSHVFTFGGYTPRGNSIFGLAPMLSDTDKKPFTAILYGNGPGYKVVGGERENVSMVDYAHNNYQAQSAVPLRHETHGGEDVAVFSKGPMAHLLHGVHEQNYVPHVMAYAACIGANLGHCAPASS

Another experiment addresses T2, ADP315.
T2 chain: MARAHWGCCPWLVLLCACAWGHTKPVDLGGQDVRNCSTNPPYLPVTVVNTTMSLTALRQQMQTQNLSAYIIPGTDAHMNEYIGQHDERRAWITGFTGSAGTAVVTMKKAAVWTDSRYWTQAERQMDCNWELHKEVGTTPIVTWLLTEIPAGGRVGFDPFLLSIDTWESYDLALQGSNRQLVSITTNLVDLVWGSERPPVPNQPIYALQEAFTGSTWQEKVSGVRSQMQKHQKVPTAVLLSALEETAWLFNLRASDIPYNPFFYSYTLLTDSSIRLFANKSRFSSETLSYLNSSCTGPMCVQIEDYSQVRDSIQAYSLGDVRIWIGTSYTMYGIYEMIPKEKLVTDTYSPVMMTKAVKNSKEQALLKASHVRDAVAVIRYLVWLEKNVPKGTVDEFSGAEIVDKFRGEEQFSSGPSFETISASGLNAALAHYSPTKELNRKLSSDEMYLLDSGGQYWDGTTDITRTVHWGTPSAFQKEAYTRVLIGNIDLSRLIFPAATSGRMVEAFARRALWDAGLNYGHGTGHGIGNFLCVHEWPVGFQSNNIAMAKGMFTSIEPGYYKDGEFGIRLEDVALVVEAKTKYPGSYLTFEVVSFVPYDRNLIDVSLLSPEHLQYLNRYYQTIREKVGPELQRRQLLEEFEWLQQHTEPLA

For the next experiment, the target named is ADP369.
The target of a further experiment is T3, ADP293.
T3 chain: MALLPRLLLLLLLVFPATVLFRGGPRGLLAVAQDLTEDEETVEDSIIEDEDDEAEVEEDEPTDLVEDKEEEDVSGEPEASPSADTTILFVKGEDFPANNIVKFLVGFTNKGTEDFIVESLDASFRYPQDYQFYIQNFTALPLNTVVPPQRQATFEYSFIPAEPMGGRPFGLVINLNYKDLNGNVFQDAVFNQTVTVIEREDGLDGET

No end group written: not given here.

B1: ADP181 (protein)
chain: SSNDKNKINKNNMPLQRGASNLKDINIHNVEKKSNMESVNNNINNAACSKNLNANKVPNVAHTGVNKKGETKNEEVEKEENENEEIEKEEIENEENQQNEEDENEENQQNEEDENEENQQMNVNVDVSAEKKNKELPEEKKELQKNSEKNINKEVIKDSNKDNTFNFHKNINTAFNKNKNIYNNNNNNNNNNKAFIEKKEEAIDMKKTHCSNNNKMCKYNNMNNHMSTNKNNNQIFEESKQNVNKPIYNLKSLGNNAFKNDEKYNENDYKNNHDDDKKKYTDDSNEENIYEERNQKILLIHLLKNIKELLNRQRQNFNNFLSFLSENYQSYEKFYKSQKYQNGKNYIDKLDQQGELKNVAVVTHSFLDMSKAANGKKDKNGVFVKLMNDQNDDGDDTKDGDDTKDEDDHKNEDDHKNEDDHKNEDDHKNEDDHKNGDDNKNGDDHKNGDDNKNGDDDNGKKSHDISDIKNIIDTILQSDDITDEQKKYLEIIKKILDLEEDVLNKEKEQLQLNKNIIEVLMGKSDELRNIAVNLKNGNGDNEASQRVDLAQNIVSNLLNFAVQLKNTGNIVYNNIQGQGELLQSIEKNIDKAENDLKKSTSVNTAFTPKNVPNTEQNDQETQTDDDINDADIDENNNANDKNNCHMYKKNNCHMYKKNNCKKYFLNSHYNNYLCKKQKKYNKNDMGNKQKDNKKFKLNEAMKNHFYNIFVKETVMLKKLYKVLFELF
modifications: bait human Fc-tagged dimer; N-glycosylation sequons mutated in Plasmodium baits
As for B1, in the experiment with ADP339, the binding score amounted to 6.19.

B2: ADP258 (protein)
chain: MGFHIQRYIAMMGRGINPKTWKKLWVDSKNKQIIHVYNDVAEFMNNQIAQVVRVYQYRY
modifications: also: human Fc-tagged dimer
Regarding B2, the binding score with ADP315 is 6.28.

B3: ADP246 (protein)
chain: GLCKPCTLENHYCEGGLESDITFNNKLIKGKFHTLPKKCPRGLGIPNIIKERNSINNCLCIHGKVQRTTENKNVECFPCPPNTFKENEYDNSCSGACPPFSTTFVGSSYENQCFCKNNYYLVSTDDENDANGNSINNNKNIYNNNNIYNNNNNNNNNNNNNFNNKADVKKKSCKICPIGAICNRGFNIYIYLKLLNDRSYNNINVIDHETPFPKYGYYAVYREKTNPAKSWDTLDDSAILNYVYPYHKLLLFIQKNIQKGNYFFLEKGNKFFLNDDFVEKMNEKSKYEEENANKFVTKSEIIHNVNTNNLKGKHNTLNNNNNNNNINKASSFLNQNNYNNDIIQLSSYENNPFKNLASTSEVSSNNNVISFIQNNDKTNNAANDNNIENLVDIFNKYVQEAKELQIQNRKFERIPDIHPCTIPNRCLGTLINLCSDGSTGYQCNNCAKNYDMSYFKSKCKKCQNLFYE
modifications: bait human Fc-tagged dimer; N-glycosylation sequons mutated in Plasmodium baits
In turn, B3 had a binding score in the experiment with ADP339 of 15.5.

B4: ADP186 (protein)
chain: YNLNNDLSKNNNFALNTYVRKDDVEDDSKNEIVDNIQKMVDDFSDDIGFVKTSMREVLLDTEASLEEVSDHVVQNIAKYSLTIEEKLNLFDGLLEEFIENNKGLISNLAKRQQKLKGDKIKKVCDLILKKLKKLENVNKLIKYKIILKYGNKDNKKEMIQTLKNEEGLSDDFKNNLANYETEQNNDDIKEIELVNFISTNYDKFVVNLEDLNKELLKDLNMALS
modifications: bait human Fc-tagged dimer; N-glycosylation sequons mutated in Plasmodium baits
In turn, B4 yielded a binding score with ADP369 of 5.22.

B5: ADP188 (protein)
chain: QDEKSVKNICVCDFTDKLNFLPLEKTKILCELKPQYGEDIKIIANKEYEINCMNNAKVFCPLKDTFINNANIKLYSPKLHFEIKDITHKGKNAALYYLKIDEEASDIFFSCSIKPKQVSGLLEGEVRVNLKKHINEEYSIFNEEEDVHVCDFSKGNLDITPSAGFYLKNSRNVACIYRVIPNKLFLIKLPKLDIVTEKLLPSIVNCLSEFSFINFALKHVQEGDNYISFNVIFGEFKKHFNLACSLDLSDFQQEPCNLGKTANIAFIFSK
modifications: bait human Fc-tagged dimer; N-glycosylation sequons mutated in Plasmodium baits
Regarding B5, the binding score with ADP293 was determined as 5.5.

B6: ADP175 (protein)
chain: KVYQGQFYLKKNEKIHYLTKFSCNIGTCQFSIKMKLRDNIAAKLLNNYYKLNNKALKEMENDKDDGNNHNNNKYDDDNNNNNNRANKLLHMDYDNAYYVLSNQDLEYIPQRITLMQDIEQRYVNKNDKCYAFGNLKNSHMFNIPFYFKYSDLVNSKTYNLKNFINNKYSMSFNAIHSELKNNKLLQSEILNYGPILNEKNSNYAYKEIYAKTTHRVHVWFLMFDDCYDNFIRNLKLNIKTKLAYWEYLLHASKKFDISSLNDMDIKQDTSYNDFQNEETEKDIYSKENINNNNNNNMNNNMNEKKNKAIFYKSFNFDKITLLENPKRFLFLEEQFTKSEINDISFFLKYYQFKKMKNFNNMYNNLYKNGYYEQVIDYIYQNEGFHIEYEVNIFQTNKAHFSYE
modifications: bait human Fc-tagged dimer; N-glycosylation sequons mutated in Plasmodium baits
On to B6, for which, in the experiment with ADP315, the binding score is 5.79.
